Test results reported in article PMC7041945, “Misfolded proteins bind and activate death receptor 5 to trigger apoptosis during unresolved endoplasmic reticulum stress” (eLife, 2020).

Experiments:
Assay type in all cases: cell-based, Homo sapiens
[1] = system: caspase 8 in HCT116 lysates; experiment: Caspase 8 activity (caspase glo 8) of cell lysates / IP inputs; conditions: for average fold change rel to empty: mean of 4 dilutions
Experimental: Cells harvested from a 6-well plate were resuspended in 100 μl of lysis buffer (30 mM HEPES pH 7.2, 150 mM NaCl, 1% Triton X-100) and lysed via needle shearing (25G, 10 passes) followed by a 30 min incubation on ice. Supernatant was collected after centrifuging at 1000xg for 5 min. For the caspase activity assay, 10 μl of supernatant diluted with lysis buffer (1:25, 1:50, 1:100 to stay within linear range of luminescence measurements) was incubated with 10 μl of the luminogenic caspase glo 8 substrate (Promega #PRG8200) in a 384-white walled plate (Corning 3574) for 45 min at RT before measuring luminescence on a Spectramax-M5 plate reader.

[2] = system: PARP / caspase 8 / caspase 3 in HCT116 cells; experiment: Western blot of HCT116 lysates (PARP, caspase 8 and caspase 3 cleavage, DR5 level)
Experimental: Media and cells for each sample were collected by cell scraping into cold PBS followed by a subsequent wash with 1 ml of cold PBS. The cell pellet was then resuspended in cold lysis buffer (30 mM HEPES pH 7.2, 150 mM NaCl, 1% Triton X100, 1x Roche protease inhibitor) and lysed via needle shearing on ice. Samples were centrifuged at 1000xg for 5 min, and the supernatants were mixed with sample buffer to a final concentration of 1% SDS, 62.5 mM Tris-HCl pH 6.8, 10% glycerol, 0.1% bromophenol blue, 50 mM DTT. Samples were boiled at 95°C and loaded on SDS-PAGE gels (GenScript). Samples were subsequently transferred onto nitrocellulose membranes, blocked with Odyssey buffer (Licor) for 1 hr at RT, and probed with primary antibodies diluted 1:1000 (unless otherwise specified) in Licor Odyssey buffer supplemented with 0.1% Tween 20% at 4°C overnight.
Bound primary antibodies were probed by HRP-conjugated secondary antibodies (Amersham, Piscataway, NJ, 1:10000) using enhanced chemiluminescence (SuperSignal; Thermo Scientific, Waltham, MA) detected by standard film or through the ChemiDoc XRS+ Imaging System (Bio-Rad).

[3] = system: caspase 8 in HCT116 fractions; experiment: Caspase 8 activity of subcellular (iodixanol gradient) fractions; conditions: cells expressing MPZ-GFP; first and second ERGIC-associated fractions
Experimental: This subcellular fractionation protocol was adapted from [Xu et al. (2015)].
Cells transfected with MPZ-GFP were harvested from a 15 cm dish as described in the Size Exclusion Chromatography section above. The cell pellet was resuspended in 400 μl of homogenization buffer (10 mM triethanolamine-acetic acid, pH 7.4, 0.25 M sucrose, 1 mM sodium EDTA, protease inhibitor cocktail (Roche)) and lysed via mechanical shearing through a 25-gauge needle on a 1 ml syringe with 13 passes. (Note on protease inhibitor: 4x protease inhibitor was used to lyse samples used for Western blotting to minimize degradation of proteins, while 1x protease inhibitor was used in sample lysis for caspase glo 8 assay so that excess inhibitor would not interfere with cleavage of luminescent substrate.) Homogenized sample was then centrifuged at 2000xg for 15 min at 4°C to remove unlysed cells and the nuclear fraction. […]
Fractions from samples lysed with 4x protease inhibitor were subjected to TCA precipitation to concentrate protein content for immunoblotting. Fractions from samples lysed with 1x protease inhibitor were used for the caspase glo 8 assay (10 μl of each fraction + 10 μl of the caspase glo 8 reagent (Promega #PRG8200) incubated for 45 min at RT prior to measuring luminescence).

[4] = system: XBP1 mRNA in HCT116 cells; experiment: RT-PCR for Xbp1 mRNA splicing; conditions: HCT116, 24 hr
Experimental: Cells were grown in 6-well plates and harvested with 0.5 ml of TRIzol reagent (Life Technologies) per manufacturer's protocol to extract RNA. […] The reverse transcription product was diluted to 200 μl with 10 mM Tris-HCl pH 8.2 and used at 1:100 dilution for subsequent RT-PCR reactions. 2 μl of cDNA was added to 0.2 μM of forward and reverse primers ([…]; Hs_XBP1_Rev: [NT]), 0.2 mM of each dNTP, 0.5 units of Taq DNA polymerase (Thermo Scientific). The reaction was set at an annealing temperature of 60.5°C with an extension time of 30 s for 26 cycles.

B1: MPZ-GFP: myelin protein zero with a C-terminal monomeric EGFP, expressed from plasmid (protein)
chain: IVVYTDREVHGAVGSRVTLHCSFWSSEWVSDDISFTWRYQPEGGRDAISIFHYAKGQPYIDEVGTFKERIQWVGDPRWKDGSIVIHNLDYSDNGTFTCDVKNPPDIVGKTSQVTLYVFEKVPTRYGVVLGAVIGGVLGVVLLLLLLFYVVRYCWLRRQAALQRRLSAMEKGKLHKPGKDASKRGRQTPVLYAMLDHSRSTKAVSEKKAKGLGESRKDKK
modifications: left off: monomeric EGFP, C-terminal, kept
notes: myelin protein zero with a C-terminal monomeric EGFP, expressed from plasmid
average fold change rel to empty ([1]; 3 hr): 0.9963 fold
average fold change rel to empty ([1]; 7 hr): 0.909 fold
average fold change rel to empty ([1]; 10 hr): 1.233 fold
average fold change rel to empty ([1]; 20 hr): 1.145 fold
average fold change rel to empty ([1]; 24 hr): 2.224 fold
average fold change ([1]; Rep 1, HCT116 lysate, amount not given, normalized RLUs relative to empty (GFP), average over four lysate dilutions): 2.827 fold
fold change relative to empty ([1]; input, dilution 0.01, rep1): 2.2
fold change relative to empty ([1]; input, dilution 0.01, rep2): 1.925
fold change relative to empty ([1]; input, dilution 0.01, rep3): 0.9528
fold change relative to empty ([1]; input, dilution 0.02, rep1): 2.798
fold change relative to empty ([1]; input, dilution 0.02, rep2): 1.811
fold change relative to empty ([1]; input, dilution 0.02, rep3): 1.706
avg fold change ([1]; input, dilution 0.02, second listing, relative to avg. empty, average of rep1-rep3): 1.9619
fold change relative to empty ([1]; input, dilution 0.02, second listing, rep2): 1.832
fold change relative to empty ([1]; input, dilution 0.02, second listing, rep3): 1.342
fold change in caspase 8 activity relative to empty, Mean ± SEM ([1]; inputs of GFP pulldown, n=6): 1.899 ± 0.2476, n=6 fold
DR5 int (bg subtracted) ([2]; DR5 input levels, Rep 2): 739.08
normalized DR5 to GAPDH ([2]; DR5 input levels, Rep 2): 0.2156
DR5 int (bg subtracted) ([2]; DR5 input levels, Rep 3): 357.944
normalized DR5 to GAPDH ([2]; DR5 input levels, Rep 3): 0.2423
DR5 levels normalized to GAPDH, average ([2]; DR5 input levels, average of rep 2 and rep 3, Stdev in row below): 0.229
caspase 8 and caspase 3 cleavage, high expression ([2]; HCT116, 24 hr): cleavage of caspase 8and its downstream target caspase 3
caspase 8 and 3 cleavage/activity, low expression level ([2]; low levels of MPZ-GFP expression, proper plasma membrane localization): did not induce caspase 8 or 3 activity
caspase 8 activity of ERGIC-associated fractions [3]: harbored the majority of the caspase 8 activity in the cell lysate
XBP1 mRNA splicing [4]: initiated a few hours post-transfection with MPZ-GFP and later attenuated
